Measured values taken from patent US20140086829A1 (BIOREC S A, published 2014).

How the values were obtained:
human GST-VEGF [1] = target: T1, human GST-VEGF (human, UniProt P15692-9 27-147); experiment: competition ELISA on coated GST-VEGF; soluble scFv 2H1 titrated; competitor phage scFv 1B1
T1 construct: also called GST-VEGF humano; not shown: GST fusion partner
T1 sequence (looked up): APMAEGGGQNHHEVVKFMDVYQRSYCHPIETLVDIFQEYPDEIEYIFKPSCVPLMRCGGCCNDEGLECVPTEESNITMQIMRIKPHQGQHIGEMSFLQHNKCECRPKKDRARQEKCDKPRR

human GST-VEGF [2] = target: T1, human GST-VEGF; experiment: competition ELISA on coated GST-VEGF; soluble scFv 2H1 titrated; competitor phage scFv L3H6
human GST-VEGF [3] = target: T1, human GST-VEGF; experiment: competition ELISA on coated GST-VEGF; soluble scFv 2H1 titrated; competitor phage scFv L2
human GST-VEGF [4] = target: T1, human GST-VEGF; experiment: competition ELISA on coated GST-VEGF; soluble scFv 2H1 titrated; competitor phage scFv 1G4
human GST-VEGF [5] = target: T1, human GST-VEGF; experiment: competition ELISA on coated GST-VEGF; soluble scFv 2H1 titrated; competitor phage scFv 3B10
human GST-VEGF [6] = target: T1, human GST-VEGF; experiment: competition ELISA on coated GST-VEGF; soluble scFv 2H1 titrated; competitor phage scFv L3H5
human GST-VEGF [7] = target: T1, human GST-VEGF; experiment: competition ELISA on coated GST-VEGF; soluble scFv 2H1 titrated; competitor phage scFv 3E12
human GST-VEGF [8] = target: T1, human GST-VEGF; experiment: competition ELISA on coated GST-VEGF; soluble scFv 2H1 titrated; competitor phage scFv 4H3
human GST-VEGF [9] = target: T1, human GST-VEGF; experiment: competition ELISA on coated GST-VEGF; soluble scFv 2H1 titrated; competitor phage scFv L3
human GST-VEGF [10] = target: T1, human GST-VEGF; experiment: competition ELISA on coated GST-VEGF; soluble scFv 2H1 titrated; competitor phage scFv 3E1
mouse VEGF (Peprotech) = target: T2, mouse VEGF (Peprotech) (mouse, UniProt Q00731-2 27-190, limits assumed); experiment: ELISA; antigen coated 1 µg/ml; scFv 10 µg/mL; 9E10-peroxidase
T2 construct: also called Mouse VEGF-A
T2 sequence (looked up): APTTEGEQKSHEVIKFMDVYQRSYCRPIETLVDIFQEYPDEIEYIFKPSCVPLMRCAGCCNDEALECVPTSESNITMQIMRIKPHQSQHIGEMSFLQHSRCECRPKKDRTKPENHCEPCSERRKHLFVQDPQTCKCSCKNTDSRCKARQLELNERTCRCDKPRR

[11] = target: T3, isoform 165 of human VEGF-A (Peprotech) (human, UniProt P15692-4 27-191); experiment: as above
T3 construct: also called human VEGF165; VEGF 165

[12] = target: T4, isoform 121 of human VEGF-A (Peprotech) (human, UniProt P15692-9 27-147); experiment: as above
T4 construct: also called human VEGF121; VEGF 121
T4 sequence (looked up): T1 sequence (looked up)

human GST-VEGF [13] = target: T1, human GST-VEGF; experiment: competition ELISA on coated GST-VEGF; soluble scFv 2H1 titrated; competitor phage scFv 1H3
human GST-VEGF [14] = target: T1, human GST-VEGF; experiment: competition ELISA on coated GST-VEGF; soluble scFv 2H1 titrated; competitor phage scFv 2H1 original
human GST-VEGF [15] = target: T1, human GST-VEGF; experiment: competition ELISA on coated GST-VEGF; soluble scFv 2H1 titrated; competitor phage scFv 1E9
human GST-VEGF [16] = target: T1, human GST-VEGF; experiment: competition ELISA on coated GST-VEGF; soluble scFv 2H1 titrated; competitor phage scFv 2F5
human GST-VEGF [17] = target: T1, human GST-VEGF; experiment: competition ELISA on coated GST-VEGF; soluble scFv 2H1 titrated; competitor phage scFv 3C4
human GST-VEGF [18] = target: T1, human GST-VEGF; experiment: competition ELISA on coated GST-VEGF; soluble scFv 2H1 titrated; competitor phage scFv 2B12
human GST-VEGF [19] = target: T1, human GST-VEGF; experiment: competition ELISA on coated GST-VEGF; soluble scFv 2H1 titrated; competitor phage scFv 2A10
human GST-VEGF [20] = target: T1, human GST-VEGF; experiment: competition ELISA on coated GST-VEGF; soluble scFv 2H1 titrated; competitor phage scFv 2H1 original; remark: listed apart in the source
human GST-VEGF [21] = target: T1, human GST-VEGF; experiment: competition ELISA on coated GST-VEGF; soluble scFv 2H1 titrated; competitor phage scFv 1H2
human GST-VEGF [22] = target: T1, human GST-VEGF; experiment: competition ELISA on coated GST-VEGF; soluble scFv 2H1 titrated; competitor phage scFv 4F2
human GST-VEGF [23] = target: T1, human GST-VEGF; experiment: competition ELISA on coated GST-VEGF; soluble scFv 2H1 titrated; competitor phage scFv 2H8
human GST-VEGF [24] = target: T1, human GST-VEGF; experiment: competition ELISA on coated GST-VEGF; soluble scFv 2H1 titrated; competitor phage scFv 3E10

T3 sequence (P15692 other isoform, or with tags, fused parts or gaps limits assumed): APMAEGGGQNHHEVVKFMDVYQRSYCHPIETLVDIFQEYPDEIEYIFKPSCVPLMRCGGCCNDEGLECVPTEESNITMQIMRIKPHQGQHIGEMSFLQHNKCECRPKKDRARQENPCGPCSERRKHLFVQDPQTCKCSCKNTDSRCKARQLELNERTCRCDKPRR

B1: soluble scFv 2H1 antibody fragment (scFv, from another filing)
scFv: QQVQLVQSGAEVKKPGESLKISCKGSGYSFTSYWIGWVRQMPGKGLEWMGIIYPGDSDTRYSPSFQGQVTISADKSISTAYLQWSSLKASDTAMYYCARLVVRDTEIWGQGTMVTVSSAPQAKSSGSGSESKVDQAVVTQEPSLTVSPGGTVTLTCASSIGAVTSGNYPNWFQQRPGQPPRALIYSTSNKHSWTPARFSGSLLGGKAALTLSGAQPEDEAEYYCLLSYSGARPVFGGGTKLTVLGAAAGSEQKLISEEDLNSHHHHHH
IC50 (human GST-VEGF [1]): 149 µg/mL
IC50 (human GST-VEGF [2]): 978 µg/mL
IC50 (human GST-VEGF [3]): 126 µg/mL
IC50 (human GST-VEGF [4]): 57.7 µg/mL
IC50 (human GST-VEGF [5]): 7.94 µg/mL
IC50 (human GST-VEGF [6]): 940 µg/mL
IC50 (human GST-VEGF [7]): 18.3 µg/mL
IC50 (human GST-VEGF [8]): 12.2 µg/mL
IC50 (human GST-VEGF [9]): 358 µg/mL
IC50 (human GST-VEGF [10]): 21.2 µg/mL
absorbance at 492 nm (mouse VEGF (Peprotech)): 0.09
absorbance at 492 nm [11]: 0.665
absorbance at 492 nm [12]: 0.691
IC50 (human GST-VEGF [13]): 117 µg/mL
IC50 (human GST-VEGF [14]): 4.89 µg/mL
IC50 (human GST-VEGF [15]): 46.2 µg/mL
IC50 (human GST-VEGF [16]): 4.21 µg/mL
IC50 (human GST-VEGF [17]): 29 µg/mL
IC50 (human GST-VEGF [18]): 21.1 µg/mL
IC50 (human GST-VEGF [19]): 35.8 µg/mL
IC50 (human GST-VEGF [20]): 5.08 µg/mL
IC50 (human GST-VEGF [21]): 124 µg/mL
IC50 (human GST-VEGF [22]): 4.98 µg/mL
IC50 (human GST-VEGF [23]): 46.6 µg/mL
IC50 (human GST-VEGF [24]): 15.1 µg/mL
